From US20240049668A1 (VILMORIN AND CIE, published 2024)
Read-outs that look alike come from different tables or passages of the source.

Experiments:
Assay in all cases: cell-based or functional assay
[1] = target: T1, Movement Protein of ToBRFV (Tomato Brown Rugose Fruit Virus …, UniProt A0A0S2SZW1 1-266)
T1 sequence: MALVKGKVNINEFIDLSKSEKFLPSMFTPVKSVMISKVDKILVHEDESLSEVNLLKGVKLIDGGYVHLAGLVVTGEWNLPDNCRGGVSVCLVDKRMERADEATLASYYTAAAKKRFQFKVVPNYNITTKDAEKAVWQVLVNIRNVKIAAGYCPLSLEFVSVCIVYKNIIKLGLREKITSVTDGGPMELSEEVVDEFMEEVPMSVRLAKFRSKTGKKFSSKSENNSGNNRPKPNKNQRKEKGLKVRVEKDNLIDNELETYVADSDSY

[2] = target: T1, Movement Protein of ToBRFV; remark: listed apart in the source
[3] = target: T1, Movement Protein of ToBRFV; remark: listed apart in the source
[4] = target: T1, Movement Protein of ToBRFV; remark: listed apart in the source
[5] = target: T1, Movement Protein of ToBRFV; remark: listed apart in the source
[6] = target: T1, Movement Protein of ToBRFV; remark: listed apart in the source

B1: TM-2-2 protein (product of the Tm-2-2 gene) (receptor)
chain: MAEILLTSVINKSVEIAGNLLIQEGKRLYWLKEDIDWLQREMRHIRSYVDNAKAKEAGGDSRVKNLLKDIQELAGDVEDLLDDFLPKIQQSNKFNYCLKRSSFADEFAMEIEKIKRRVVDIDRIRKTYNIIDTDNNNDDCVLLDRRRLFLHADETEIIGLDDDFNMLQAKLLNQDLHYGVVSIVGMPGLGKTTLAKKLYRLIRDQFECSGLVYVSQQPRASEILLDIAKQIGLTEQKMKENLEDNLRSLLKIKRYVILLDDIWDVEIWDDLKLVLPECDSKVGSRMIITSRNSNVGRYIGGESSLHALQPLESEKSFELFTKKIFNFDDNNSWANASPDLVNIGRNIVGRCGGIPLAIVVTAGMLRARERTEHAWNRVLESMGHKVQDGCAKVLALSYNDLPIASRPCFLYFGLYPEDHEIRAFDLINMWIAEKFIVVNSGNRREAEDLAEDVLNDLVSRNLIQLAKRTYNGRISSCRIHDLLHSLCVDLAKESNFFHTAHDAFGDPGNVARLRRITFYSDNVMIEFFRSNPKLEKLRVLFCFAKDPSIFSHMAYFDFKLLHTLVVVMSQSFQAYVTIPSKFGNMTCLRYLRLEGNICGKLPNSIVKLTRLETIDIDRRSLIQPPSGVWESKHLRHLCYRDYGQACNSCFSISSFYPNIYSLHPNNLQTLMWIPDKFFEPRLLHRLINLRKLGILGVSNSTVKMLSIFSPVLKALEVLKLSFSSDPSEQIKLSSYPHIAKLHLNVNRTMALNSQSFPPNLIKLTLAYFSVDRYILAVLKTFPKLRKLKMFICKYNEEKMDLSGEANGYSFPQLEVLHIHSPNGLSEVTCTDDVSMPKLKKLLLTGFHCRISLSERLKKLSK
< 1 HR scale 0-4: HR to MP Rugose [1] | HR when expressed with MP Rugose [2] | HR when expressed with MP Rugose [3] | HR to MP Rugose [4] | HR to MP Rugose [5] | HR to MP Rugose [6]
